Measurements: paper PMC8767016, “The Bacteroidetes Aequorivita sp. and Kaistella jeonii Produce Promiscuous Esterases With PET-Hydrolyzing Activity” (Frontiers in Microbiology, 2022)

What was measured:
[1] = target: T1, PET30ΔPorC (Kaistella jeonii, UniProt A0A0C1F4U8); assay: pNP release at […] nm, relative activity; assay type: biochemical; conditions: 30°C
T1 construct: gene OA86_11720; C-terminal PorC (T9SS) sorting domain 300-366 deleted; signal peptide removed; His-tagged, E. coli host; monomer in asymmetric unit

[2] = substrate: CCCCCC(=O)Oc1ccc([N+](=O)[O-])cc1; assay: purified protein; assay type: biochemical, Kaistella jeonii; conditions: 30°C, pH 8

Molecule	pNP release at 405 nm, relative activity [1]	Km [2] [µM]	kcat [2] [s⁻¹]
CCCCCC(=O)Oc1ccc([N+](=O)[O-])cc1 [pNP-C6]	Activity tests confirmed that it was not affected in its activities using pNP-C6		
PET30 (Kaistella jeonii) (protein, signal peptide removed, Met added; C-terminal 6xHis (pET21a), E. coli host, Ni-NTA; PorC (T9SS) domain kept) QCTGATVESLTNPGPYTVATLSEADGVRNGPKYAGSTIYYPTNATPPYASIAIVPGFTAAPSSVQEWGPFYASHGIVAIIIGTNSLYDQPEARALALLDALETIKQENGRATSPLIGKLDVTKLAVSGWSMGGGGAQRAAVLDNTISAVVALCPYLTSPQLNHTVPVLIFSGQSDPTAPPSQHANVHYNTTPGTTNKLLFEVKNGNHSVANSPTGGGGAVGKLALSWLKIYLEKNDCYCSVLATAIVNSTTVSSKISQSYQCNNALGVVDSKTRFNLYPNPTKDFVQVNVREMASYQLSSSTGQIVLKGIVTSSKNQIDLSKLPAGVYYLQINGETIKVIKKQ		300	8.9
